Data published in patent publication US20230138930A1 (FUDAN UNIVERSITY, published 2023).

How the values were obtained:
[1] = molecular target: T1, human TF on cells (MDA-MB-231, BxPC-3 and other tumor cells with high TF expression) (human, UniProt P13726 33-295); experiment: flow cytometry on MDA-MB-231 cells, antibody at 1 µg/mL
T1 construct: whole, on cells; Endogenous expression on tumor cell lines; also called cell surface TF

[2] = molecular target: T1, human TF on cells (MDA-MB-231, BxPC-3 …); experiment: flow cytometry on MDA-MB-231 cells, antibody at 10 µg/mL

B1: TF-mAb-H30 (antibody, V domains shown)
VH: EVQLVQSGAEVKKPGESLKISCKGSGYSFTSYWMNWVRQMPGKGLEWMGMIYPADSETRLNQKFKDKATLSVDKSISTAYLQWSSLKASDTAMYYCAREDYGSSDYWGQGTTVTVSS
VL: EIVLTQSPATLSLSPGERATLSCSASSSVSYMNWYQQKPGQAPRIWIYGISNLASGIPARFSGSGSGTDFTLTISSLEPEDFAVYYCQQKSSFPWTFGGGTKVEIK
An MFI [1] of 2930 MFI and an MFI [2] of 3240 MFI were found for B1 in this work.

B2: TF-mAb-H40 (antibody, V domains shown)
VH: EVQLVQSGAEVKKPGESLKISCKGSGYSFTSYWMNWVRQMPGKGLEWMGMIYPADSETRLNQKFKDKATLSVDKSISTAYLQWSSLKASDTAMYYCAREDYGSSDYWGQGTTVTVSS
VL: DIQLTQSPSSLSASVGDRVTITCSASSSVSYMNWYQQKPGKSPKIWIYGISNLASGVPSRFSGSGSGTDFTLTISSLQPEDFATYYCQQKSSFPWTFGGGTKVEIK
An MFI [1] of 3180 MFI and an MFI [2] of 3310 MFI were found for B2 in this work.

B3: TF-mAb-H38 (antibody, V domains shown)
VH: QVQLVQSGSELKKPGASVKVSCKASGYSFISYWMNWVRQAPGQGLEWIGMIYPADSETRLNQKFKDRAVLSVDKSVSTAYLQICSLKAEDTAVYYCAREDYGSSDYWGQGTTVTVSS
VL: EIVLTQSPATLSLSPGERATLSCSASSSVSYMNWYQQKPGQSPRIWIYGISNLASGVPARFSGSGSGTDFTLTISSLEPEDFAVYYCQQKSSFPWTFGGGTKVEIK
An MFI [1] of 2870 MFI and an MFI [2] of 3150 MFI were found for B3 in this work.

B4: TF-mAb-H45 (antibody, V domains shown)
VH: EVQLVQSGAEVKKPGESLKISCKGSGYSFTSYWMNWVRQMPGKGLEWMGMIYPADSETRLNQKFKDKATLSVDKSISTAYLQWSSLKASDTAMYYCAREDYGSSDYWGQGTTVTVSS
VL: EIVLTQSPDFQSVTPKEKVTITCSASSSVSYMNWYQQKPDQSPKIWIYGISNLASGVPSRFSGSGSGTDFTLTINSLEAEDAATYYCQQKSSFPWTFGGGTKVEIK
An MFI [1] of 3100 MFI and an MFI [2] of 3480 MFI were found for B4 in this work.

B5: TF-mAb-H32 (antibody, V domains shown)
VH: QVQLVQSGAEVKKPGASVKVSCKASGYSFISYWMNWVRQAPGQGLEWIGMIYPADSETRLNQKFKDRATLTVDKSTSTAYMELSSLRSEDTAVYYCAREDYGSSDYWGQGTTVTVSS
VL: EIVLTQSPATLSLSPGERATLSCSASSSVSYMNWYQQKPGQAPRIWIYGISNLASGIPARFSGSGSGTDFTLTISSLEPEDFAVYYCQQKSSFPWTFGGGTKVEIK
An MFI [1] of 2400 MFI and an MFI [2] of 3010 MFI were found for B5 in this work.

B6: TF-mAb-H39 (antibody, V domains shown)
VH: EVQLVQSGAEVKKPGESLKISCKGSGYSFTSYWMNWVRQMPGKGLEWMGMIYPADSETRLNQKFKDQATLSVDKSISTAYLQWSSLKASDTAMYYCAREDYGSSDYWGQGTTVTVSS
VL: DIQLTQSPSSLSASVGDRVTITCSASSSVSYMNWYQQKPGKSPKIWIYGISNLASGVPSRFSGSGSGTDFTLTISSLQPEDFATYYCQQKSSFPWTFGGGTKVEIK
An MFI [1] of 3180 MFI and an MFI [2] of 3380 MFI were found for B6 in this work.

B7: TF-mAb-H33 (antibody, V domains shown)
VH: QVQLVQSGSELKKPGASVKVSCKASGYSFISYWMNWVRQAPGQGLEWIGMIYPADSETRLNQKFKDRAVLSVDKSVSTAYLQICSLKAEDTAVYYCAREDYGSSDYWGQGTTVTVSS
VL: EIVLTQSPATLSLSPGERATLSCSASSSVSYMNWYQQKPGQAPRIWIYGISNLASGIPARFSGSGSGTDFTLTISSLEPEDFAVYYCQQKSSFPWTFGGGTKVEIK
An MFI [1] of 2420 MFI and an MFI [2] of 2840 MFI were found for B7 in this work.

B8: TF-mAb-H35 (antibody, V domains shown)
VH: EVQLVQSGAEVKKPGESLKISCKGSGYSFTSYWMNWVRQMPGKGLEWMGMIYPADSETRLNQKFKDKATLSVDKSISTAYLQWSSLKASDTAMYYCAREDYGSSDYWGQGTTVTVSS
VL: EIVLTQSPATLSLSPGERATLSCSASSSVSYMNWYQQKPGQSPRIWIYGISNLASGVPARFSGSGSGTDFTLTISSLEPEDFAVYYCQQKSSFPWTFGGGTKVEIK
An MFI [1] of 2930 MFI and an MFI [2] of 3020 MFI were found for B8 in this work.

B9: TF-mAb-H31 (antibody, V domains shown)
VH: EVQLVQSGAEVKKPGESLKISCKGSGYSFTSYWMNWVKQMPGKGLEWMGMIYPADSETRLNQKFKDKATLSVDKSISTAYLQWSSLKASDTAMYYCAREDYGSSDYWGQGTTVTVSS
VL: EIVLTQSPATLSLSPGERATLSCSASSSVSYMNWYQQKPGQAPRIWIYGISNLASGIPARFSGSGSGTDFTLTISSLEPEDFAVYYCQQKSSFPWTFGGGTKVEIK
An MFI [1] of 3080 MFI and an MFI [2] of 3470 MFI were found for B9 in this work.

B10: TF-mAb-H37 (antibody, V domains shown)
VH: QVQLVQSGAEVKKPGASVKVSCKASGYSFISYWMNWVRQAPGQGLEWIGMIYPADSETRLNQKFKDRATLTVDKSTSTAYMELSSLRSEDTAVYYCAREDYGSSDYWGQGTTVTVSS
VL: EIVLTQSPATLSLSPGERATLSCSASSSVSYMNWYQQKPGQSPRIWIYGISNLASGVPARFSGSGSGTDFTLTISSLEPEDFAVYYCQQKSSFPWTFGGGTKVEIK
An MFI [1] of 2460 MFI and an MFI [2] of 2990 MFI were found for B10 in this work.

B11: TF-mAb-H44 (antibody, V domains shown)
VH: EVQLVQSGAEVKKPGESLKISCKGSGYSFTSYWMNWVRQMPGKGLEWMGMIYPADSETRLNQKFKDQATLSVDKSISTAYLQWSSLKASDTAMYYCAREDYGSSDYWGQGTTVTVSS
VL: EIVLTQSPDFQSVTPKEKVTITCSASSSVSYMNWYQQKPDQSPKIWIYGISNLASGVPSRFSGSGSGTDFTLTINSLEAEDAATYYCQQKSSFPWTFGGGTKVEIK
An MFI [1] of 3200 MFI and an MFI [2] of 3430 MFI were found for B11 in this work.

B12: TF-mAb-H29 (antibody, V domains shown)
VH: EVQLVQSGAEVKKPGESLKISCKGSGYSFTSYWMNWVRQMPGKGLEWMGMIYPADSETRLNQKFKDQATLSVDKSISTAYLQWSSLKASDTAMYYCAREDYGSSDYWGQGTTVTVSS
VL: EIVLTQSPATLSLSPGERATLSCSASSSVSYMNWYQQKPGQAPRIWIYGISNLASGIPARFSGSGSGTDFTLTISSLEPEDFAVYYCQQKSSFPWTFGGGTKVEIK
An MFI [1] of 2960 MFI and an MFI [2] of 3580 MFI were found for B12 in this work.

B13: TF-mAb-H34 (antibody, V domains shown)
VH: EVQLVQSGAEVKKPGESLKISCKGSGYSFTSYWMNWVRQMPGKGLEWMGMIYPADSETRLNQKFKDQATLSVDKSISTAYLQWSSLKASDTAMYYCAREDYGSSDYWGQGTTVTVSS
VL: EIVLTQSPATLSLSPGERATLSCSASSSVSYMNWYQQKPGQSPRIWIYGISNLASGVPARFSGSGSGTDFTLTISSLEPEDFAVYYCQQKSSFPWTFGGGTKVEIK
An MFI [1] of 2460 MFI and an MFI [2] of 3270 MFI were found for B13 in this work.

B14: TF-mAb-H46 (antibody, V domains shown)
VH: EVQLVQSGAEVKKPGESLKISCKGSGYSFTSYWMNWVKQMPGKGLEWMGMIYPADSETRLNQKFKDKATLSVDKSISTAYLQWSSLKASDTAMYYCAREDYGSSDYWGQGTTVTVSS
VL: EIVLTQSPDFQSVTPKEKVTITCSASSSVSYMNWYQQKPDQSPKIWIYGISNLASGVPSRFSGSGSGTDFTLTINSLEAEDAATYYCQQKSSFPWTFGGGTKVEIK
An MFI [1] of 3120 MFI and an MFI [2] of 3410 MFI were found for B14 in this work.

B15: TF-mAb-H36 (antibody, V domains shown)
VH: EVQLVQSGAEVKKPGESLKISCKGSGYSFTSYWMNWVKQMPGKGLEWMGMIYPADSETRLNQKFKDKATLSVDKSISTAYLQWSSLKASDTAMYYCAREDYGSSDYWGQGTTVTVSS
VL: EIVLTQSPATLSLSPGERATLSCSASSSVSYMNWYQQKPGQSPRIWIYGISNLASGVPARFSGSGSGTDFTLTISSLEPEDFAVYYCQQKSSFPWTFGGGTKVEIK
An MFI [1] of 3040 MFI and an MFI [2] of 3090 MFI were found for B15 in this work.

B16: TF-mAb-H41 (antibody, V domains shown)
VH: EVQLVQSGAEVKKPGESLKISCKGSGYSFTSYWMNWVKQMPGKGLEWMGMIYPADSETRLNQKFKDKATLSVDKSISTAYLQWSSLKASDTAMYYCAREDYGSSDYWGQGTTVTVSS
VL: DIQLTQSPSSLSASVGDRVTITCSASSSVSYMNWYQQKPGKSPKIWIYGISNLASGVPSRFSGSGSGTDFTLTISSLQPEDFATYYCQQKSSFPWTFGGGTKVEIK
An MFI [1] of 3000 MFI and an MFI [2] of 3610 MFI were found for B16 in this work.

B17: TF-mAb-Ch (antibody, V domains shown)
VH: QVQLQQPGAELVRPGASVKLSCKASGYSFISYWMNWVKQRPGQGLEWIGMIYPADSETRLNQKFKDKATLTVDKSSSTAYMQLSSPTSEDSAVYYCAREDYGSSDYWGQGTTLTVSS
VL: EILLTQSPAIIAASPGEKVTITCSASSSVSYMNWYLQKPGSSPKIWIYGISNLASGVPARFSGSGSGTSFSFTINSMETEDVATYYCQQKSSFPWTFGGGTKLEIK
notes: Variable regions of TF-mAb-SC1 cloned onto human IgG1 heavy chain constant region and human kappa constant region; also called human-mouse chimeric antibody
An MFI [1] of 3370 MFI and an MFI [2] of 3540 MFI were found for B17 in this work.

B18: TF-mAb-H42 (antibody, V domains shown)
VH: QVQLVQSGAEVKKPGASVKVSCKASGYSFISYWMNWVRQAPGQGLEWIGMIYPADSETRLNQKFKDRATLTVDKSTSTAYMELSSLRSEDTAVYYCAREDYGSSDYWGQGTTVTVSS
VL: DIQLTQSPSSLSASVGDRVTITCSASSSVSYMNWYQQKPGKSPKIWIYGISNLASGVPSRFSGSGSGTDFTLTISSLQPEDFATYYCQQKSSFPWTFGGGTKVEIK
An MFI [1] of 2970 MFI and an MFI [2] of 3350 MFI were found for B18 in this work.

B19: TF-mAb-H47 (antibody, V domains shown)
VH: QVQLVQSGAEVKKPGASVKVSCKASGYSFISYWMNWVRQAPGQGLEWIGMIYPADSETRLNQKFKDRATLTVDKSTSTAYMELSSLRSEDTAVYYCAREDYGSSDYWGQGTTVTVSS
VL: EIVLTQSPDFQSVTPKEKVTITCSASSSVSYMNWYQQKPDQSPKIWIYGISNLASGVPSRFSGSGSGTDFTLTINSLEAEDAATYYCQQKSSFPWTFGGGTKVEIK
An MFI [1] of 3000 MFI and an MFI [2] of 3150 MFI were found for B19 in this work.

B20: TF-mAb-H48 (antibody, V domains shown)
VH: QVQLVQSGSELKKPGASVKVSCKASGYSFISYWMNWVRQAPGQGLEWIGMIYPADSETRLNQKFKDRAVLSVDKSVSTAYLQICSLKAEDTAVYYCAREDYGSSDYWGQGTTVTVSS
VL: EIVLTQSPDFQSVTPKEKVTITCSASSSVSYMNWYQQKPDQSPKIWIYGISNLASGVPSRFSGSGSGTDFTLTINSLEAEDAATYYCQQKSSFPWTFGGGTKVEIK
An MFI [1] of 2610 MFI and an MFI [2] of 2900 MFI were found for B20 in this work.

B21: TF-mAb-H43 (antibody, V domains shown)
VH: QVQLVQSGSELKKPGASVKVSCKASGYSFISYWMNWVRQAPGQGLEWIGMIYPADSETRLNQKFKDRAVLSVDKSVSTAYLQICSLKAEDTAVYYCAREDYGSSDYWGQGTTVTVSS
VL: DIQLTQSPSSLSASVGDRVTITCSASSSVSYMNWYQQKPGKSPKIWIYGISNLASGVPSRFSGSGSGTDFTLTISSLQPEDFATYYCQQKSSFPWTFGGGTKVEIK
An MFI [1] of 2820 MFI and an MFI [2] of 3300 MFI were found for B21 in this work.
